B1: His-SUMO-tagged CHC22 terminal domain (domain or fragment)
chain: MAQILPVRFQEHFQLQNLGINPANIGFSTLTMESDKFICIREKVGEQAQVTIIDMSDPMAPIRRPISAESAIMNPASKVIALKAGKTLQIFNIEMKSKMKAHTMAEEVIFWKWVSVNTVALVTETAVYHWSMEGDSQPMKMFDRHTSLVGCQVIHYRTDEYQKWLLLVGISAQQNRVVGAMQLYSVDRKVSQPIEGHAAAFAEFKMEGNAKPATLFCFAVRNPTGGKLHIIEVGQPAAGNQPFVKKAVDVFFPPEAQNDFPVAMQIGAKHGVIYLITKYGYLHLYDLESGVCICMNRISADTIFVTAPHKPTSGIIGVNKKGQVLSVCVEEDNIVNYATNVLQNPDLGLRLAVRSNLAGAEKLF
B2: full-length GST-SNX5 (natural protein)
chain: MAAVPELLQQQEEDRSKLRSVSVDLNVDPSLQIDIPDALSERDKVKFTVHTKTTLPTFQSPEFSVTRQHEDFVWLHDTLIETTDYAGLIIPPAPTKPDFDGPREKMQKLGEGEGSMTKEEFAKMKQELEAEYLAVFKKTVSSHEVFLQRLSSHPVLSKDRNFHVFLEYDQDLSVRRKNTKEMFGGFFKSVVKSADEVLFTGVKEVDDFFEQEKNFLINYYNRIKDSCVKADKMTRSHKNVADDYIHTAACLHSLALEEPTVIKKYLLKVAELFEKLRKVEGRVSSDEDLKLTELLRYYMLNIEAAKDLLYRRTKALIDYENSNKALDKARLKSKDVKLAEAHQQECCQKFEQLSESAKEELINFKRKRVAAFRKNLIEMSELEIKHARNNVSLLQSCIDLFKNN
B3: GST-GGA2-HE (domain or fragment)
chain: GRVTFGNRVTSSLGDIPVSRVFQNPAGCMKTCPLIDLEVDNGPAQMGTVVPSLLHQDLAALGISDAPVTGMVSGQNCCEEKRNPSSSTLPGGGVQNPSADRNLLDLLSAQPAPCPLNYVSQKSVPKEVPPGTKSSPGWSWEAGPLAPSPSSQNTPLAQVFVPLESVKPSSLPPLIVYDRNGFRILLHFSQTGAPGHPEVQVLLLTMMSTAPQPVWDIMFQVAVPKSMRVKLQPASSSKLPAFSPLMPPAVISQMLLLDNPHKEPIRLRYKLTFNQGGQPFSEVGEVKDFPDLAVLGAA
B4: His-tagged CHC22 TxD (domain or fragment)
chain: WAQSVELCKKDHLYKDAMQHAAESRDAELAQKLLQWFLEEGKRECFAACLFTCYDLLRPDMVLELAWRHNLVDLAMPYFIQVMREYLSKVDKLDALESLRKQEEHVTEPAPLVFDFDGHE

Assay in all cases: pull-down
In test [1] the target is T1, full-length GST-p115 (UniProt O60763 1-962).
T1 sequence: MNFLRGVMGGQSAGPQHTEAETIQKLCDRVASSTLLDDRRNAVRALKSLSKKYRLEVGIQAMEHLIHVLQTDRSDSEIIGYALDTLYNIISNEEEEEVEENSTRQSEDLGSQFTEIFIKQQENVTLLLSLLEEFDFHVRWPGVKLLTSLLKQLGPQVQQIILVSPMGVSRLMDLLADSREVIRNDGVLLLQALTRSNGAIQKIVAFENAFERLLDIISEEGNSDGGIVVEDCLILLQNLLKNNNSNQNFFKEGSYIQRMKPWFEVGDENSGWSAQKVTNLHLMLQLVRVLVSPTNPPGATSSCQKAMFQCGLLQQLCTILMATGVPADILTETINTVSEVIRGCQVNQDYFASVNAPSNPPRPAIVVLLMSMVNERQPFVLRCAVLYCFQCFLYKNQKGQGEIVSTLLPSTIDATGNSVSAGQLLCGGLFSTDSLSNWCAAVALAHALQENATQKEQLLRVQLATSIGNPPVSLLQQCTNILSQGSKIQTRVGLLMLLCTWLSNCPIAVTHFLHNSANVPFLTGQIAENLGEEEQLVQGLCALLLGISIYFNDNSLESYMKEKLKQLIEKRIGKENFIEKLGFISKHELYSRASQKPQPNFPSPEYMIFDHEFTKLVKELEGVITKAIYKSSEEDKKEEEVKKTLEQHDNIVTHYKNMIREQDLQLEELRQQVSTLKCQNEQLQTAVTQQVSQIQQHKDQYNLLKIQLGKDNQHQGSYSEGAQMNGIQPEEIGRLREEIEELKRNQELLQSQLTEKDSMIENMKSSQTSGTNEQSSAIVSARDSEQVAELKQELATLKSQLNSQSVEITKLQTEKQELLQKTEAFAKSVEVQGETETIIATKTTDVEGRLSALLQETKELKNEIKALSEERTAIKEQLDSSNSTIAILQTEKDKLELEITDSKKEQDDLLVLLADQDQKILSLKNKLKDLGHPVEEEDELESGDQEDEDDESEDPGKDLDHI

The target in test [2] is T2, full-length His-p115 (UniProt O60763 1-962).
T2 sequence: T1 sequence

Test [3] addresses T3, His-tagged CHC22 Hub (human, UniProt P53675 1074-1640).
T3 sequence: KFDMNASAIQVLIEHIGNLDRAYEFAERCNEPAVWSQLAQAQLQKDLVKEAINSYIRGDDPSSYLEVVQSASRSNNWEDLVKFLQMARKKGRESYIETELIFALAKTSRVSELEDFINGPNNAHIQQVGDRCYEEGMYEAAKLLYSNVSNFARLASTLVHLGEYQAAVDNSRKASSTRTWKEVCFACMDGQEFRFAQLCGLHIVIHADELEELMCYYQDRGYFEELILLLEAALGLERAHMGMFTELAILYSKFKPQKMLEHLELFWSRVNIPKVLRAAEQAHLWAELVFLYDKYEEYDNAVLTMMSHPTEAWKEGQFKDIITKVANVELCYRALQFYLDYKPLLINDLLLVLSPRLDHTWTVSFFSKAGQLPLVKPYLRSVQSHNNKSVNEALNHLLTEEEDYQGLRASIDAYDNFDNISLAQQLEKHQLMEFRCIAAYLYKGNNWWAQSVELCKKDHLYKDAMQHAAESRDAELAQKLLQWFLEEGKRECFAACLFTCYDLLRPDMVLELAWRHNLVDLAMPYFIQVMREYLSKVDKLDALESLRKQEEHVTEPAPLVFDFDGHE

For test [4], the target named is full-length His-tagged SNX1 (UniProt Q13596 1-522).
For test [5], the target named is B1.
Test [6] deals with T4, His-SUMO CHC17 terminal domain (human, UniProt Q00610 1-364).
T4 sequence: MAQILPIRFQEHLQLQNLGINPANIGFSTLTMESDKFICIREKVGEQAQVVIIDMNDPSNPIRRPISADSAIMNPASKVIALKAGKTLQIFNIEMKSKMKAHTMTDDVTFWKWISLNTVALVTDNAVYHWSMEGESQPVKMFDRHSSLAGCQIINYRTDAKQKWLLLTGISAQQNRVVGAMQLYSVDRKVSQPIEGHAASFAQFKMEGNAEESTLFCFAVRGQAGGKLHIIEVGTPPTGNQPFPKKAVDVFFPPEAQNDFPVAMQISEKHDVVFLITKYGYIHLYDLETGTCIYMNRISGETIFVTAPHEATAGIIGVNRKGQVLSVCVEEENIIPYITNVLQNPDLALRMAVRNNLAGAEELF

The target of test [7] is T5, full-length GST-SNX5 phosphomimetic S226E mutant (human, UniProt Q9Y5X3 1-404, S226E).
T5 sequence: B2 chain with S226E

Test [8] deals with B2.

The record followed here is publication doi:10.1101/2022.12.21.520923 (bioRxiv, 2022).

Residue numbers refer to the chain shown, from its start.

full-length His-tagged SNX1, sequence (Q13596 whole entry): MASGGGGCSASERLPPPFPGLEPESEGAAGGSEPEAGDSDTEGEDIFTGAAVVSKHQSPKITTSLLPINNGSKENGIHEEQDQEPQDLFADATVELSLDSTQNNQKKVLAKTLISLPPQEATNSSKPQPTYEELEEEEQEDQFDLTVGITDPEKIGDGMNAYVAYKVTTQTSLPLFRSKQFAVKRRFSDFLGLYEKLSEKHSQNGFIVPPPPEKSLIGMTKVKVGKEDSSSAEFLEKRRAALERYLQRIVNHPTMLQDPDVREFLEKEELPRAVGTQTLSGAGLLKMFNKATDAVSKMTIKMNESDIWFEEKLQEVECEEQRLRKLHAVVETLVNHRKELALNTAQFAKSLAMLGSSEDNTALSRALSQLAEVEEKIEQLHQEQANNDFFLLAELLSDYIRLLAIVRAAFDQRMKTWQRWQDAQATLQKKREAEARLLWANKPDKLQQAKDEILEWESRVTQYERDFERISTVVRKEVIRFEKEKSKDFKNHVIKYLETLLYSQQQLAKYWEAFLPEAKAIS

With B1, the binding result in test [1] was “binds”.

As to B2, the binding result in test [2], in test [3] and in test [4] was “binds” throughout.

B3: the binding result in test [5] and in test [6] was “binds” each time.

Turning to B4, the binding result in test [7] and in test [8] was “binds” throughout.
